Experimental data taken from the supplement of paper PMC10724198.
± gives the standard deviation of the averaged measurements.

The sequences below were run on Saccharomyces cerevisiae (assay: protein stability index of tFT-peptide fusion (C-terminal peptide) (PSI (0-1 scale)); higher = more stable (slower turnover)). Details: genetic background: cdc34-1; temperature: 37 C.
Description: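 MPS profiling in S. cerevisiae of the tFT-X12 degron library: putative degron peptides plus stable controls, 12 aa, fused to the C-terminus of a sfGFP-mCherry timer. Cells are FACS-sorted into 8 mCherry/sfGFP bins and deep-sequenced. PSI runs from 0 (unstable) to 1 (stable). Backgrounds are wild type, das1Δ and doa10Δ at 30 °C, and wild type, das1Δ, cdc34-1 and cdc53-1 at 37 °C; 2-3 technical replicates each.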
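Also: PSI is a weighted mean of sequencing reads over stability bins, variants kept only with over 10 reads, mCherry proximal and sfGFP distal, peptide attached via GGGS linker.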

Sequence | protein stability index
KALFPGLLLCAF | 0.168 ± 0.0027
KLLDHFVKIRVY | 0.164 ± 0.021
KLRELQVRQQLS | 0.648 ± 0.1
LAEHIFLVLDHG | 0.451 ± 0.026
LAISTIQMFKRI | 0.677 ± 0.049
LAKPTVRKIICV | 0.41 ± 0.0086
LAPSRNRSVWLV | 0.591 ± 0.015
LASFCSVCIFIS | 0.224 ± 0.0054
LASWVVFIWFLW | 0.253 ± 0.026
LCFLVALASMLF | 0.5426 ± 0.0019
LCFVCLWGYLGV | 0.388 ± 0.023
LCFVFVLGFFAF | 0.379 ± 0.058
LCTCFLVLLLWC | 0.387 ± 0.032
LCVFRFFLFFFL | 0.35 ± 0.012
LDFPPLRLILRL | 0.601 ± 0.019
LEPFTGYTVIVM | 0.165 ± 0.045
LFDVLFVFSFIF | 0.4681 ± 0.0013
LFFASFLLIGPF | 0.4091 ± 0.0033
LFFFFLPHLILL | 0.3403 ± 0.00055
LFHPPSFSLRLF | 0.681 ± 0.038
LFHVWSLRFFWL | 0.576 ± 0.039
LFLFVGCSVRRL | 0.528 ± 0.023
LFLLYVLVSLFV | 0.288 ± 0.019
LFLVVVVRAGGF | 0.144 ± 0.042
LFPVASLCLART | 0.643 ± 0.028
LFRFVFLLFGFW | 0.452 ± 0.019

Sequence | protein stability index
LFRNIFLFVFLI | 0.267 ± 0.029
LFWTWVLVGVSV | 0.1462 ± 0.0014
LGATYSVQLYVS | 0.336 ± 0.044
LGIPKLLCFVCT | 0.424 ± 0.011
LGLCFFFYSLHS | 0.539 ± 0.064
LGNVTDVMHRLS | 0.645 ± 0.038
LGVVLFCFRFCR | 0.464 ± 0.0074
LHFHIYLIISPF | 0.117 ± 0.0026
LHLLFLPFVVCL | 0.212 ± 0.017
LIFFFCSWVFRF | 0.3037 ± 0.00048
LIFLSISFISSL | 0.1 ± 0.0059
LILFMLLSFLTT | 0.371 ± 0.013
LIRVLRVLRHSS | 0.607 ± 0.015
LLAVIVWIVPPA | 0.241 ± 0.01
LLCRVSRTRILC | 0.478 ± 0.026
LLDIYFILLVWF | 0.263 ± 0.02
LLFLWVLFLPFA | 0.4449 ± 0.00067
LLFPRVLVLCFS | 0.034 ± 0.011
LLILIVNLRRIG | 0.376 ± 0.0085
LLISPFLFLLVC | 0.0704 ± 0.043
LLLLGVSLFLVR | 0.282 ± 0.0053
LLLPSAPFLFLL | 0.305 ± 0.015
LLMLWWARVFSG | 0.296 ± 0.032
LLVFWRLWWSLS | 0.248 ± 0.035
LLVKFTFLIIFT | 0.146 ± 0.0079
LLVLPFFSLSRF | 0.896 ± 0.028

Sequence | protein stability index
LLVVFSCFTFMF | 0.259 ± 0.0096
LMLGARVSRRIH | 0.64 ± 0.082
LNALSHCRAICS | 0.632 ± 0.027
LPASLSLWPLLC | 0.4736 ± 0.0023
LPPHLPFPLSAA | 0.657 ± 0.0098
LPSPLLFLPALF | 0.708 ± 0.017
LQSVAFERGGPD | 0.687 ± 0.017
LRSVVFFCRTLL | 0.677 ± 0.045
LSFFDYVLLQIA | 0.556 ± 0.03
LSLGVGSDAEGG | 0.687 ± 0.06
LSYRFVFRFLLF | 0.543 ± 0.067
LVCLFFLSSLFF | 0.547 ± 0.05
LVCLVASCVRWL | 0.453 ± 0.022
LVGVLLAVWSVV | 0.2387 ± 0.00038
LVLGLYGVWLVV | 0.262 ± 0.005
LVMYRSALIRGH | 0.526 ± 0.039
LVSWAWIWIFVF | 0.251 ± 0.057
LVSYHKMAISSF | 0.595 ± 0.017
LWWTRVILYGYI | 0.51 ± 0.0061
LYCGLIFFLRGV | 0.6263 ± 0.0019
LYFLLGSLVFVF | 0.366 ± 0.0083
MALAVRVVTCGA | 0.185 ± 0.014
MIQPRLANIIIS | 0.8517 ± 0.0056
MLVLFCLCYILG | 0.2462 ± 0.0023
MSHVCICRRLML | 0.68 ± 0.037
NFVVYHVAIRVP | 0.073 ± 0.0071

Same assay, conditions: genetic background: cdc53-1; temperature: 37 C

Sequence | protein stability index
KALFPGLLLCAF | 0.188 ± 0.0038
KLLDHFVKIRVY | 0.2 ± 0.0077
KLRELQVRQQLS | 0.677 ± 0.015
LAEHIFLVLDHG | 0.485 ± 0.013
LAISTIQMFKRI | 0.718 ± 0.04
LAKPTVRKIICV | 0.387 ± 0.025
LAPSRNRSVWLV | 0.7308 ± 0.002
LASFCSVCIFIS | 0.31 ± 0.014
LASWVVFIWFLW | 0.348 ± 0.012
LCFLVALASMLF | 0.579 ± 0.038
LCFVCLWGYLGV | 0.471 ± 0.011
LCFVFVLGFFAF | 0.4836 ± 0.0019
LCTCFLVLLLWC | 0.404 ± 0.02
LCVFRFFLFFFL | 0.371 ± 0.034
LDFPPLRLILRL | 0.609 ± 0.0072
LEPFTGYTVIVM | 0.185 ± 0.015
LFDVLFVFSFIF | 0.524 ± 0.006
LFFASFLLIGPF | 0.4803 ± 0.003
LFFFFLPHLILL | 0.321 ± 0.041
LFHPPSFSLRLF | 0.738 ± 0.025
LFHVWSLRFFWL | 0.669 ± 0.017
LFLFVGCSVRRL | 0.58092 ± 0.00029
LFLLYVLVSLFV | 0.347 ± 0.064
LFLVVVVRAGGF | 0.288 ± 0.058
LFPVASLCLART | 0.648 ± 0.048
LFRFVFLLFGFW | 0.428 ± 0.025

Sequence | protein stability index
LFRNIFLFVFLI | 0.229 ± 0.0072
LFWTWVLVGVSV | 0.176 ± 0.029
LGATYSVQLYVS | 0.577 ± 0.022
LGIPKLLCFVCT | 0.432 ± 0.0061
LGLCFFFYSLHS | 0.58 ± 0.037
LGNVTDVMHRLS | 0.739 ± 0.0094
LGVVLFCFRFCR | 0.556 ± 0.028
LHFHIYLIISPF | 0.137 ± 0.022
LHLLFLPFVVCL | 0.2458 ± 0.0015
LIFFFCSWVFRF | 0.291 ± 0.032
LIFLSISFISSL | 0.245 ± 0.049
LILFMLLSFLTT | 0.409 ± 0.042
LIRVLRVLRHSS | 0.6917 ± 0.0043
LLAVIVWIVPPA | 0.35 ± 0.0085
LLCRVSRTRILC | 0.533 ± 0.0097
LLDIYFILLVWF | 0.237 ± 0.03
LLFLWVLFLPFA | 0.469 ± 0.005
LLFPRVLVLCFS | 0.0512 ± 0.0018
LLILIVNLRRIG | 0.556 ± 0.069
LLISPFLFLLVC | 0.0371 ± 0.002
LLLLGVSLFLVR | 0.378 ± 0.011
LLLPSAPFLFLL | 0.256 ± 0.0043
LLMLWWARVFSG | 0.395 ± 0.045
LLVFWRLWWSLS | 0.334 ± 0.011
LLVKFTFLIIFT | 0.257 ± 0.089
LLVLPFFSLSRF | 0.90351 ± 0.00018

Sequence | protein stability index
LLVVFSCFTFMF | 0.399 ± 0.042
LMLGARVSRRIH | 0.687 ± 0.015
LNALSHCRAICS | 0.687 ± 0.0091
LPASLSLWPLLC | 0.604 ± 0.025
LPPHLPFPLSAA | 0.7225 ± 0.0025
LPSPLLFLPALF | 0.7877 ± 0.0075
LQSVAFERGGPD | 0.736 ± 0.0092
LRSVVFFCRTLL | 0.7436 ± 0.0044
LSFFDYVLLQIA | 0.58 ± 0.029
LSLGVGSDAEGG | 0.736 ± 0.015
LSYRFVFRFLLF | 0.592 ± 0.0035
LVCLFFLSSLFF | 0.606 ± 0.0081
LVCLVASCVRWL | 0.533 ± 0.0085
LVGVLLAVWSVV | 0.294 ± 0.039
LVLGLYGVWLVV | 0.179 ± 0.022
LVMYRSALIRGH | 0.529 ± 0.042
LVSWAWIWIFVF | 0.354 ± 0.022
LVSYHKMAISSF | 0.58 ± 0.019
LWWTRVILYGYI | 0.571 ± 0.021
LYCGLIFFLRGV | 0.6389 ± 0.0017
LYFLLGSLVFVF | 0.417 ± 0.015
MALAVRVVTCGA | 0.297 ± 0.075
MIQPRLANIIIS | 0.864 ± 0.017
MLVLFCLCYILG | 0.34 ± 0.013
MSHVCICRRLML | 0.743 ± 0.016
NFVVYHVAIRVP | 0.134 ± 0.0046
